This passage reports Ki results from patent publication US6906033 (dated 2005).

Where a chain is given by its changes, count along the chain named.

T1: human factor Xa (human, UniProt P00742 41-179; P00742 235-488)
T1 chain 1: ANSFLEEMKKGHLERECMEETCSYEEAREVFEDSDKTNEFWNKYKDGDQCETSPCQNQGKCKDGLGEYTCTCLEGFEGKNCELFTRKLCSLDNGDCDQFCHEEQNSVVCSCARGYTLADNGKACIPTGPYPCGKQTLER
T1 chain 2: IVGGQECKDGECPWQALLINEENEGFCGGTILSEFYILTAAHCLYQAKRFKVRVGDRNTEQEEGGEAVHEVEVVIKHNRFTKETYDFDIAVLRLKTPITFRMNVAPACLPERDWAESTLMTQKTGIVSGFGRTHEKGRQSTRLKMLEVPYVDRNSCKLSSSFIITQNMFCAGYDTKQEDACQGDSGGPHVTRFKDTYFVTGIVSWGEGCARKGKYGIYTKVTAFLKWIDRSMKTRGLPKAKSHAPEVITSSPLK

T2: human factor XIIa (human, UniProt P00748 20-615, biotinylated with Biotin Ester (Zymed); sites not stated)
T2 chain: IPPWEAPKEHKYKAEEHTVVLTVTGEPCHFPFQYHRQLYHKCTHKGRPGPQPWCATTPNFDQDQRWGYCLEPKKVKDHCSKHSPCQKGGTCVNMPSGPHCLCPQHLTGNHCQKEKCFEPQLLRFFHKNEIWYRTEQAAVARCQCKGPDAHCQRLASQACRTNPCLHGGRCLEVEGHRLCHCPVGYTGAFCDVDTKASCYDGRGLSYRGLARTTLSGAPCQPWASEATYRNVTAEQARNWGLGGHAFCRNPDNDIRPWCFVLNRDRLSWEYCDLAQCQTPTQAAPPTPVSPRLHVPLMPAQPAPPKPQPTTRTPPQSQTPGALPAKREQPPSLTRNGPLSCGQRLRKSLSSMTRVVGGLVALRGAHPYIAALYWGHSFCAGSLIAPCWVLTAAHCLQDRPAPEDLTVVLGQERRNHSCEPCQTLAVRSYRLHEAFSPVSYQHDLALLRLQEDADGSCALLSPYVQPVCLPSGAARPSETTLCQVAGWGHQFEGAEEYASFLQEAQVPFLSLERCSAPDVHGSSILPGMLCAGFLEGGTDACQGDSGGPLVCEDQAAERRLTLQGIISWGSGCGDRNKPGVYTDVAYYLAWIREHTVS

B1: TW122 (protein)
chain: EVCSEQAETGPCRAMISRWYFDVTEGKCAPFFYGGCGANRNNFDTEEYCMAVCGSAI
B2: TW6151 (protein)
chain: EVVREVCSEQAETGPCRAMISRWYFDVTEGKCAPFFYGGCEGNRNNFDTEEYCMAVCGSAI
B3: DD129 (protein)
chain: B2 chain with M19L, I20F, E41G
B4: TW6153 (protein)
chain: B2 chain with E41I
B5: TW6139 (protein)
chain: B2 chain with E41H
B6: TW6159 (protein)
chain: B2 chain with E41V
B7: BG002 (protein)
chain: B2 chain with M19L, I20L, E41G
B8: TW6161 (protein)
chain: B2 chain with E41Y
B9: DD101 (protein)
chain: B2 chain with E41D
B10: TW6178 (protein)
chain: B2 chain with E41G, G42R
B11: TW6173 (protein)
chain: B2 chain with M19A, I20H, E41G
B12: TW6174 (protein)
chain: B2 chain with M19L, I20H, E41G
B13: TW6183 (protein)
chain: B2 chain with I20H, S21F, E41G
B14: TW6175 (protein)
chain: B2 chain with M19L, S21F, E41G
B15: TW6204 (protein)
chain: B2 chain with M19A, R22A, E41G
B16: TW6205 (protein)
chain: B2 chain with M19L, R22A, E41G
B17: TW6184 (protein)
chain: B2 chain with I20H, S21Y, E41G

The first assay addresses T1, human factor Xa. The experiment in a line: enzyme inhibition.
Take B1: the Ki (in general, a dissociation constant, usually derived from enzyme kinetics or from competition with a known ligand) was found to be 581 nM.
The molecule B2 displayed a Ki of 954 nM.
The molecule B3 displayed an inhibition constant Ki of 6 nM.
B4 returned an inhibitory constant (Ki) of 36 nM.
In turn, B5 came in with a Ki of 78 nM.
B6 yielded a Ki of 64 nM.
The molecule B7 displayed an inhibition constant (Ki) of 60 nM.
On the same count and under the same terms, the same measure for B8: 8.7 nM.

The target of a further assay is human plasma kallikrein (human, UniProt P03952 20-638). Description: enzyme inhibition.
Sequence of human plasma kallikrein (P03952 20-638): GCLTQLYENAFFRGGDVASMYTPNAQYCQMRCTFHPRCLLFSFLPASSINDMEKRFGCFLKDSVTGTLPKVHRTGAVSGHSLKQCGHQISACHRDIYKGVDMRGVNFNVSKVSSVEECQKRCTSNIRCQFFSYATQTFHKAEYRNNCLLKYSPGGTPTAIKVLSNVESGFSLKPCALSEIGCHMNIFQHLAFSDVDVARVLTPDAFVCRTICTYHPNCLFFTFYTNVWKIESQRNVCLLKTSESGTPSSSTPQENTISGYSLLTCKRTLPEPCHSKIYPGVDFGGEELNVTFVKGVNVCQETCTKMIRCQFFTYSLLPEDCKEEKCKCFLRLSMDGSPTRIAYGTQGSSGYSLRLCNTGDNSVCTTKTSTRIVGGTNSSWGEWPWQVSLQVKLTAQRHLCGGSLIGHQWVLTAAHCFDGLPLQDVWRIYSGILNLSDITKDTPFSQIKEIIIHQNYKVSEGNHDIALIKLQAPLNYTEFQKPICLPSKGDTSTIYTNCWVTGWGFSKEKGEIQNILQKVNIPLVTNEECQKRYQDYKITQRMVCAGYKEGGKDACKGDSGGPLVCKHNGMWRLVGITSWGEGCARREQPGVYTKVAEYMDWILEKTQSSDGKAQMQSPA
B1 showed an inhibitory constant (Ki) of 32 nM.
Molecule B2 registered a Ki of 163 nM.
Molecule B3 showed a Ki of 3.6 nM. Compared with the last molecule, the Ki is about 45-fold lower.
B4 displayed a Ki of 11.2 nM.
B5: affinity was put at a Ki of 19 nM.
On to B6, for which the inhibitory constant (Ki) came to 17 nM.
Turning to B7, the Ki is 0.98 nM.
On the same count and under the same terms, the same measure for B9: 64 nM; for B10: 16 nM.
In turn, B8 showed an inhibition constant (Ki) of 7.5 nM. Against the preceding molecule, the Ki is about 2.1-fold lower.

The next assay deals with T2, human factor XIIa. The experiment in a line: enzyme inhibition.
B2: the inhibition constant (Ki) worked out at 1160 nM.
Take B11: the Ki is 1430 nM. The Ki values of the last two molecules are within 1.5-fold of each other.
Take B3: the Ki is 1860 nM.
B4: the Ki stood at 65 nM.
The molecule B5 displayed an inhibition constant (Ki) of 152 nM.
As for B7, the Ki was determined as 403 nM. Compared with the last molecule, the Ki is about 2.7-fold higher.
The same measure, in the same setting: the same measure for B9: 924 nM; for B10: 444 nM.
As to B12, affinity was put at a Ki of 2800 nM. Against the preceding molecule, the Ki is about 6.3-fold higher.
The molecule B8 returned an inhibition constant Ki of 1510 nM. This Ki lies about 1.9-fold lower than the previous one.

Another assay deals with T1, human factor Xa. Description: enzyme inhibition. This is another data set of the same source.
Take B13: the inhibition constant (Ki) was found to be 159 nM.
With B14, the Ki amounted to 56 nM. This Ki lies about 2.8-fold lower than the previous one.
Molecule B15 gave a Ki of 87 nM. Against the preceding molecule, the Ki is about 1.6-fold higher.
In turn, B16 gave an inhibition constant Ki of 29 nM.
In turn, B17 registered an inhibitory constant (Ki) of 214 nM.

Another assay addresses T2, human factor XIIa. The experiment in a line: enzyme inhibition. This is another data set of the same source.
Take B13: the affinity corresponds to a Ki of 12400 nM. In other words, the double-digit micromolar range.
Take B14: the inhibition constant Ki was determined as 35 nM.
With B15, the inhibition constant (Ki) was determined as 147 nM.
The molecule B16 showed a Ki of 195 nM.
B17 had a Ki of 14000 nM.
